Patent US9176064B2, “Bisubstrate fluorescent probes for protein kinase CK2” (University of Tartu, priority 2012, dated 2015)
Where a SMILES comes first, the peptide text is derived from it. [ ]: non-standard residue; d: D form. The star is where a group is joined. X1 = O=C(CCCCCCCn1cnc2c(Br)c(Br)c(Br)c(Br)c21)*

Tests used:
Assay in all cases: Kinase panel residual activity
Format in all cases: biochemical
Details in all cases: compound at 1 micromolar
MARK4 = target: T1, MARK4 (Homo sapiens, UniProt Q96L34)
T1 sequence (Q96L34 1-752): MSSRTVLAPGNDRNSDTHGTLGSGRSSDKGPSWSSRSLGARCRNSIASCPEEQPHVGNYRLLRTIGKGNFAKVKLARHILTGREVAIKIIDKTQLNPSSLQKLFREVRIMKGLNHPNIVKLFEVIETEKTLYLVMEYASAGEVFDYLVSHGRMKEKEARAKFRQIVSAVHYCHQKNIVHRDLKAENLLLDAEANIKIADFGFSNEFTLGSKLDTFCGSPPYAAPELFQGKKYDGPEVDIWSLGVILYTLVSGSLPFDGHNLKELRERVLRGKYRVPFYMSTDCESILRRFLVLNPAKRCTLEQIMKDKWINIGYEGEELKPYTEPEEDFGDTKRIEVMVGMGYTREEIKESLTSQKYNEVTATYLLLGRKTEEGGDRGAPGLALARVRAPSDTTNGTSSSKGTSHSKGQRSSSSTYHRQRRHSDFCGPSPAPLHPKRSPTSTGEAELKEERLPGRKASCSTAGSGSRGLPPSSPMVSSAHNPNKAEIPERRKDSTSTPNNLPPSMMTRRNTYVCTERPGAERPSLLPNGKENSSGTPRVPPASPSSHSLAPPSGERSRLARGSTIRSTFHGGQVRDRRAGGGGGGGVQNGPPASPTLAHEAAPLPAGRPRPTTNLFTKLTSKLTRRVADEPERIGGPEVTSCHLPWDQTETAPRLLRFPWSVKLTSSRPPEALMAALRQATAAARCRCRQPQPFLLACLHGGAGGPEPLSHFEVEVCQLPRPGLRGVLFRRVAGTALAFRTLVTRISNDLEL

MEKK1 = MEKK1 (Homo sapiens, UniProt Q13233)
MEKK1, sequence (Q13233 whole entry, species assumed): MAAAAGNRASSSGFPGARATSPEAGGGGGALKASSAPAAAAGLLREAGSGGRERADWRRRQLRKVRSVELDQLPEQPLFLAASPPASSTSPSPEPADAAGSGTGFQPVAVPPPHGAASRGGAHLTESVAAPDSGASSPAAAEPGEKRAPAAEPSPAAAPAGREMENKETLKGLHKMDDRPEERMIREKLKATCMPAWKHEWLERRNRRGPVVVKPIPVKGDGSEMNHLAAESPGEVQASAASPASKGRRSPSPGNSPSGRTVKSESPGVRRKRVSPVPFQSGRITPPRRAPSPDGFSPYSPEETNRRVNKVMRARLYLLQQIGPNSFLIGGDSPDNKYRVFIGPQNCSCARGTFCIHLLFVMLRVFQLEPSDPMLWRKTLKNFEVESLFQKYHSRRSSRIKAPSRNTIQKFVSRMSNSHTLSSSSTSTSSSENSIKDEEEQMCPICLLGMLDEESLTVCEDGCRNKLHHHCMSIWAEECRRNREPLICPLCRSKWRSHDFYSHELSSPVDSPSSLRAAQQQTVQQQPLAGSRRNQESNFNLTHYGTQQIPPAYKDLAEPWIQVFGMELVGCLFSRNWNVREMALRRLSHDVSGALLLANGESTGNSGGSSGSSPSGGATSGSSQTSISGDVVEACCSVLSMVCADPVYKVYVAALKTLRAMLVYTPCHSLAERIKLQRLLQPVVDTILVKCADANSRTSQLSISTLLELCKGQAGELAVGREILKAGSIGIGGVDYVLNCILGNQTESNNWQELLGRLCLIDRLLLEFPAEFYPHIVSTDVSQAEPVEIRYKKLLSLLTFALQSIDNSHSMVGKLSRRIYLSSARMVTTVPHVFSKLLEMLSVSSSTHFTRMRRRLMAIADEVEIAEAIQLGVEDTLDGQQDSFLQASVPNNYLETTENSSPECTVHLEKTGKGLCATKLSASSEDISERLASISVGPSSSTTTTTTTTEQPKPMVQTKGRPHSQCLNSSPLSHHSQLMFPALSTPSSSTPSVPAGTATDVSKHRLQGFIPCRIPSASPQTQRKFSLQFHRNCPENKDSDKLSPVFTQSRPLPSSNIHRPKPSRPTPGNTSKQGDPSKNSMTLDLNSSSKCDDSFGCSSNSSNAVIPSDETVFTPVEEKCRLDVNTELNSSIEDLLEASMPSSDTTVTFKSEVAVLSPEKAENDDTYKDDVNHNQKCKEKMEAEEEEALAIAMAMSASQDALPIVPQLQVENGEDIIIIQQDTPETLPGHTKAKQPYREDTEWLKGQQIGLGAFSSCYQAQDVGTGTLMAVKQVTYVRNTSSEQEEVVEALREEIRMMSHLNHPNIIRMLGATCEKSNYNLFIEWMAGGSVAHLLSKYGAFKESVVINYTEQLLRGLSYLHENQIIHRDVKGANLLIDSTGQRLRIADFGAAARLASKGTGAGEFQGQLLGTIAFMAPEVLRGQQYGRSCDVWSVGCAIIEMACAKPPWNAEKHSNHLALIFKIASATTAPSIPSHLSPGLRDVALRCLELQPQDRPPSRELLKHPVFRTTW

PAK5 = PAK5 (Homo sapiens, UniProt Q9P286)
PAK5, sequence (Q9P286 whole entry): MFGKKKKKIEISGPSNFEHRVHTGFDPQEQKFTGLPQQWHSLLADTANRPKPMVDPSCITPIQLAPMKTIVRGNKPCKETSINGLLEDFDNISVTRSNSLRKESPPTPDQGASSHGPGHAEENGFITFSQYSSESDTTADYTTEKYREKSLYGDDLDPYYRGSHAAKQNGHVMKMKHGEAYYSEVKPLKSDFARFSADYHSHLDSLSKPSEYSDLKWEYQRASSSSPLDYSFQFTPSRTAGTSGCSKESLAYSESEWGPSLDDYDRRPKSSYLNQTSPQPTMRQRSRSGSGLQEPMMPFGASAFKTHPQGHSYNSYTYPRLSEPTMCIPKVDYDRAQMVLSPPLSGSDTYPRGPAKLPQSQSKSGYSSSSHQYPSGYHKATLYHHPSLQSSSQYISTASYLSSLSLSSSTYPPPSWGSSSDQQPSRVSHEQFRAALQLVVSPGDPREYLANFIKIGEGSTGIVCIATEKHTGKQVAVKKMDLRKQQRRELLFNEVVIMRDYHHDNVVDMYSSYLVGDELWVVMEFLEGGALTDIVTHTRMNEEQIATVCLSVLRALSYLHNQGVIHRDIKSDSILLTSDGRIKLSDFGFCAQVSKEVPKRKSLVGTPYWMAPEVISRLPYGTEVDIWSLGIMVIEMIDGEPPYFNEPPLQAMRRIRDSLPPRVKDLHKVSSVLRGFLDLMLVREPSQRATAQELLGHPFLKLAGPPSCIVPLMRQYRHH

MST3 = MST3 (Homo sapiens, UniProt Q9Y6E0)
MST3, sequence (Q9Y6E0 whole entry, species assumed): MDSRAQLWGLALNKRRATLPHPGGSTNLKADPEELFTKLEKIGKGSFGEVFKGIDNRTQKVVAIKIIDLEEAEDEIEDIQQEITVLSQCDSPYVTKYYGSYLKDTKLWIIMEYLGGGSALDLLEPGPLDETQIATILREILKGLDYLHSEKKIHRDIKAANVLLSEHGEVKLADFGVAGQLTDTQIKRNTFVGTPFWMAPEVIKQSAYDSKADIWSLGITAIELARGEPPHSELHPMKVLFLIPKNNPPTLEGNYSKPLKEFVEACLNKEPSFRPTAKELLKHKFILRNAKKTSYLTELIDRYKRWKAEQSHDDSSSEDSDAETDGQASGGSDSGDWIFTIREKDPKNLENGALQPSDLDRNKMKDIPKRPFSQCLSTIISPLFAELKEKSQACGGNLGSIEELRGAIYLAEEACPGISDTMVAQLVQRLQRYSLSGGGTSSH

BRSK2 = target: T2, BRSK2 (Homo sapiens, UniProt Q8IWQ3)
T2 sequence (Q8IWQ3 1-736): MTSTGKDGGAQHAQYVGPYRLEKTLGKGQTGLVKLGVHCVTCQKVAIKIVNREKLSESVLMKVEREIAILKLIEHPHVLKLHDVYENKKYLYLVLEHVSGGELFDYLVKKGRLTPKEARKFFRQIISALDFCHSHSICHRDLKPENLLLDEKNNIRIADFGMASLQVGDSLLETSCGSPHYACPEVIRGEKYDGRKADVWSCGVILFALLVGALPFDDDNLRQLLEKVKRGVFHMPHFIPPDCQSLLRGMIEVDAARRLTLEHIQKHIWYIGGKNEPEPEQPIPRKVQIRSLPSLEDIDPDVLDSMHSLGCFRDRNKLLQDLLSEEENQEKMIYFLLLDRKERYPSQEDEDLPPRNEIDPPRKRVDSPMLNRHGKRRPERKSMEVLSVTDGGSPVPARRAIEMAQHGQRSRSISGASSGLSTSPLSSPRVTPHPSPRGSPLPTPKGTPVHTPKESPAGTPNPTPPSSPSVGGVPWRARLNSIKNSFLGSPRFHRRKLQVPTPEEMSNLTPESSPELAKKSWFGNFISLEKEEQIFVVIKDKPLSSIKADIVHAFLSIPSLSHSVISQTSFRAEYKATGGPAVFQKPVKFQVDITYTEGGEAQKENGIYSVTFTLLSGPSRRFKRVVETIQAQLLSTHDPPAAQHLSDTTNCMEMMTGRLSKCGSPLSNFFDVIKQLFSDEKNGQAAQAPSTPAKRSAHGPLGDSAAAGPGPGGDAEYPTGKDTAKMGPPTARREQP

ROCK 2 = ROCK 2 (Homo sapiens, UniProt O75116)
ROCK 2, sequence (O75116 whole entry, species assumed): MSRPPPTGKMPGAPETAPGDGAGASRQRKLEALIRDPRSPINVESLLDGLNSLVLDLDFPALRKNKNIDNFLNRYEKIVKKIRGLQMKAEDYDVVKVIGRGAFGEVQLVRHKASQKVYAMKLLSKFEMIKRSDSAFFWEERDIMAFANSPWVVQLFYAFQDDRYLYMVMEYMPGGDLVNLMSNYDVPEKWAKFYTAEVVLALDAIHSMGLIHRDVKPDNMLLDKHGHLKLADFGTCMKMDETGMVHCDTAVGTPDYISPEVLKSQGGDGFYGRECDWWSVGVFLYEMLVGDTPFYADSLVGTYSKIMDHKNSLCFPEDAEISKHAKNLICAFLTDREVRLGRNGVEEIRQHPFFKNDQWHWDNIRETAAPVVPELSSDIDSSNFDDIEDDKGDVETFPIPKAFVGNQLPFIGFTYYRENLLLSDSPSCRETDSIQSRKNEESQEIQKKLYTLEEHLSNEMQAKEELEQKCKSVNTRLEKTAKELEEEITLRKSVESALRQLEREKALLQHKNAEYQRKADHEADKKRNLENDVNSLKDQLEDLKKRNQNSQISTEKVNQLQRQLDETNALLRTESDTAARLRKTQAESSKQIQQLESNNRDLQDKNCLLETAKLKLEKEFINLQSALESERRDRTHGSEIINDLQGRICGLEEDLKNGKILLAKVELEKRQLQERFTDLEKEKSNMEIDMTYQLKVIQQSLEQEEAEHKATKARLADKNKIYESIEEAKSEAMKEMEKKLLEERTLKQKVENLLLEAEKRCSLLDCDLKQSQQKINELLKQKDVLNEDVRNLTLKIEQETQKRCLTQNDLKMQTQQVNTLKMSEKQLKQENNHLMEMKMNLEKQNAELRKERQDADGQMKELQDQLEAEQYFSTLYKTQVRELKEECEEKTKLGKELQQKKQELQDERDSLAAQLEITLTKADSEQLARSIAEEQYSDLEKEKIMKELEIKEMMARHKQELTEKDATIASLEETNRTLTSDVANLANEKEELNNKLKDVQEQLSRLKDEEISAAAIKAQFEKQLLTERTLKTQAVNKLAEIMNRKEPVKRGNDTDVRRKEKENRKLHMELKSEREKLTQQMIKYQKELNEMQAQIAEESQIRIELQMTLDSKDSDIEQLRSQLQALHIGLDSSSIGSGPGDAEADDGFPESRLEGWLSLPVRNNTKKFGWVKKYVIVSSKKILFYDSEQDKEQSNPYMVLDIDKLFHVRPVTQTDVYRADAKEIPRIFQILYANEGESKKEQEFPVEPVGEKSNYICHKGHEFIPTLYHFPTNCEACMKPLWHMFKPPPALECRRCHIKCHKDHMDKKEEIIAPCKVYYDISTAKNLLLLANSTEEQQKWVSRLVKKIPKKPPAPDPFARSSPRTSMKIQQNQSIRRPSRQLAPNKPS

p38a MAPK = p38a MAPK (Homo sapiens, UniProt Q16539)
p38a MAPK, sequence (Q16539 whole entry): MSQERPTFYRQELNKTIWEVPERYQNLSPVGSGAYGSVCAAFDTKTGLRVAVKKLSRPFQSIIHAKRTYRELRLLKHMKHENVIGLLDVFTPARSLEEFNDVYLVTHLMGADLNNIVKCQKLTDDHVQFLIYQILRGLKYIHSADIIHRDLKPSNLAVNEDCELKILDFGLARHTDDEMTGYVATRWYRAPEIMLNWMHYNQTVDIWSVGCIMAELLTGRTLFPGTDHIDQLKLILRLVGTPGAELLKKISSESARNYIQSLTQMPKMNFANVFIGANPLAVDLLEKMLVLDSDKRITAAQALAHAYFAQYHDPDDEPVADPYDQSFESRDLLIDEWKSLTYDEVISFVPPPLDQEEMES

IKKb = target: T3, IKKb (Homo sapiens, UniProt O14920)
T3 sequence (O14920 1-756): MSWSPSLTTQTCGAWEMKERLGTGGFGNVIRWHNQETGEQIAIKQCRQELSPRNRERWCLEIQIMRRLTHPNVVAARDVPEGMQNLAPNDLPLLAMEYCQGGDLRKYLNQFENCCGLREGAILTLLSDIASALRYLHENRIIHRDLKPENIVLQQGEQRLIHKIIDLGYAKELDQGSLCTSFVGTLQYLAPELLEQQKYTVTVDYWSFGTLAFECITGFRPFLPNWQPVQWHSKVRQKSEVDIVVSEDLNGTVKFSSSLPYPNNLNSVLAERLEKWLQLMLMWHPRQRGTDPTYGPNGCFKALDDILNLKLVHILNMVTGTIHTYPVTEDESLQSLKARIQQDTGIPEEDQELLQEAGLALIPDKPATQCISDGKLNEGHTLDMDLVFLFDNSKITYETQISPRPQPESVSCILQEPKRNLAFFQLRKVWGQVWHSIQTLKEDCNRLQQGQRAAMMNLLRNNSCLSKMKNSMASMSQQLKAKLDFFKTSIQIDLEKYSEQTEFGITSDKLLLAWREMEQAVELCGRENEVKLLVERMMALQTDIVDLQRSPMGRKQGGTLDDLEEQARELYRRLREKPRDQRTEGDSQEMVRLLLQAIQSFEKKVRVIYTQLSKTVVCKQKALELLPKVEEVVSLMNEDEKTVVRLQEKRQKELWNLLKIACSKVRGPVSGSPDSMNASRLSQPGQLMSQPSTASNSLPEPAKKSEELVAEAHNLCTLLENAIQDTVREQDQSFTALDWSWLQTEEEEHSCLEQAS

OSR1 = OSR1 (Homo sapiens, UniProt O95747)
OSR1, sequence (O95747 whole entry): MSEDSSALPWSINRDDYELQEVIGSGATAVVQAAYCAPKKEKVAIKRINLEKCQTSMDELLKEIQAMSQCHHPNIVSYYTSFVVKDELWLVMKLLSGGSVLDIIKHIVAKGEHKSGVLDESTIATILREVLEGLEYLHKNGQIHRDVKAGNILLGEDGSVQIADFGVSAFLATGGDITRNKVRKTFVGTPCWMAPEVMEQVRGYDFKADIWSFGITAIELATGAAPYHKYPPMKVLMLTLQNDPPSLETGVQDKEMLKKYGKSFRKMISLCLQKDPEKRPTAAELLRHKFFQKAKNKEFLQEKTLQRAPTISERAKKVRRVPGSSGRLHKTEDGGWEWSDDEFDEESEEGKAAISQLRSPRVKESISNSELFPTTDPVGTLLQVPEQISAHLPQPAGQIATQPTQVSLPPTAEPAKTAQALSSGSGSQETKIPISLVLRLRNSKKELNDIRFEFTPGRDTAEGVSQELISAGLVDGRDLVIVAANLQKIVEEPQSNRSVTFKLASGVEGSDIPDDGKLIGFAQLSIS

NCCCC[C@H](NC(=O)[C@H](CC(=O)O)NC(=O)[C@H](CC(=O)O)NC(=O)[C@H](CC(=O)O)NC(=O)[C@H](CC(=O)O)NC(=O)[C@H](CC(=O)O)NC(=O)[C@@H](CC(=O)O)NC(=O)CCCCCCCn1cnc2c(Br)c(Br)c(Br)c(Br)c21)C(=O)O [TBBI-OcA-(D-Asp)-(L-Asp)5-(L-Lys)-OH] (X1-[dD]DDDDDK-OH)
remaining activity at 1 µM (MARK4): 75%
remaining activity at 1 µM (MEKK1): 95%
remaining activity at 1 µM (PAK5): 81%
remaining activity at 1 µM (MST3): 100%
remaining activity at 1 µM (BRSK2): 75%
remaining activity at 1 µM (ROCK 2): 91%
remaining activity at 1 µM (p38a MAPK): 116%
remaining activity at 1 µM (IKKb): 55%
remaining activity at 1 µM (OSR1): 130%
